In patent US20240366776A1 (Hoffmann-La Roche, published 2024):

How the values were obtained:
PD-1-Fc = PD-1-Fc (UniProt Q15116 25-167, limits assumed); assay: cell-based or functional assay
human IL-2 [1] = biological target: T1, human IL-2 (human, UniProt P60568 21-153, biotin-labeled in the IL2RB blocking assay); assay: HTRF IL-2:IL2RB
T1 construct: also called biotin-labeled IL-2 (Acro Biosystems IL2-H82E4)

human IL-2 [2] = biological target: T1, human IL-2; assay: HTRF
PD-1 = PD-1 (human, UniProt Q15116 25-167, limits assumed); assay: HTRF
PD-1, sequence (Q15116 25-167 limits assumed): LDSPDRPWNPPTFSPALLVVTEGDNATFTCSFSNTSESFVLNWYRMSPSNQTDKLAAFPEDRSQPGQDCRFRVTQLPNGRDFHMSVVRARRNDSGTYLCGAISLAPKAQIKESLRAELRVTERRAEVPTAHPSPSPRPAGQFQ

T1 sequence (P60568 21-153 limits assumed): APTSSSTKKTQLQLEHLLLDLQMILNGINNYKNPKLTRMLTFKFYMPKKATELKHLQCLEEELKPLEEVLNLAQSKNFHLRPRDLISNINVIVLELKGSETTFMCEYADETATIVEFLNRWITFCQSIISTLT
PD-1-Fc, sequence (Q15116 25-167 limits assumed): as the sequence (Q15116 25-167 limits assumed) above

Binder | IL-2 activity EC50, HEK-Blue IL-2 reporter cells, IgG1 coated wells (control) (PD-1-Fc) [nM] | IL-2 activity EC50, HEK-Blue IL-2 reporter cells, PD-1 coated wells (PD-1-Fc) [nM] | IL2RB Blocking (human IL-2 [1]) | IL2 Binding (human IL-2 [2]) | PD1 Binding (PD-1)
AF4387 (other) heavy 1: APTSSSTKKTQLQLEHLLLDLQMILNGINNYKNPKLTDMLTFEFYMPKKATELKHLQCLERELKPLEEVLNLAQSKNFHLRPRDLISNINVIVLELKGSETTFMCEYADETATIVEFLNRWITFCQSIISTLTGGGGSGGGGSGGGGSGGGGSQVQLVQSGAEVKKPGASVKVSCKASGYTFTDYYMHWVRQAPGQGLEWMGIINPRAGYTSYALKFQGRVTMTRDTSTSTVYMELSSLRSEDTAVYYCTSGWDVWGQGTLVTVSSAKTTAPSVYPLAPVCGDTTGSSVTLGCLVKGYFPEPVTLTWNSGSLSSGVHTFPAVLQSDLYTLSSSVTVTSSTWPSQSITCNVAHPASSTKVDKKIEPRGPTIKPCPPCKCPAPNAAGGPSVFIFPPKIKDVLMISLSPIVTCVVVDVSEDDPDVQISWFVNNVEVHTAQTQTHREDYNSTLRVVSALPIQHQDWMSGKEFKCKVNNKDLGAPIERTISKPKGSVRAPQVYVLPPPEEEMTKKQVTLTCMVTDFMPEDIYVEWTNNGKTELNYKNTEPVLDSDGSYFMYSDLRVEKKNWVERNSYSCSVVHEGLHNHHTTESFSRTPGK heavy 2: QVQLVQSGAEVKKPGASVKVSCKASGYTFTDYYMHWVRQAPGQGLEWMGIINPRAGYTSYALKFQGRVTMTRDTSTSTVYMELSSLRSEDTAVYYCTSGWDVWGQGTLVTVSSAKTTAPSVYPLAPVCGDTTGSSVTLGCLVKGYFPEPVTLTWNSGSLSSGVHTFPAVLQSDLYTLSSSVTVTSSTWPSQSITCNVAHPASSTKVDKKIEPRGPTIKPCPPCKCPAPNAAGGPSVFIFPPKIKDVLMISLSPIVTCVVVDVSEDDPDVQISWFVNNVEVHTAQTQTHREDYNSTLRVVSALPIQHQDWMSGKEFKCKVNNKDLGAPIERTISKPKGSVRAPQVYVLPPPEKEMTKKQVSLTCLVKDFMPEDIYVEWTNNGKTELNYKNTEPVLKSDGSYFMYSKLTVEKKNWVERNSYSCSVVHEGLHNHHTTKSFSRTPGGGGSGGGSHHHHHH light: DIQMTQSPSSLSASVGDRVTITCRASQSISTWLAWYQQKPGKAPKLLIYAASSLDSGVPSRFSGSGSGTDFTLTISSLQPEDFATYYCQQSYSFPVTFGQGTKVEIKRADAAPTVSIFPPSSEQLTSGGASVVCFLNNFYPKDINVKWKIDGSERQNGVLNSWTDQDSKDSTYSMSSTLTLTKDEYERHNSYTCEATHKTSTSPIVKSFNRNEC | 0.419 | 0.057 |  |  | 
PD1-IL2-R07-A04 (scFv) QVQLVQSGAEVKKPGASVKVSCKASGYTFTDYYMHWVRQAPGQGLEWMGIINPRAGYTSYALKFQGRVTMTRDTSTSTVYMELSSLRSEDTAVYYCTSGMDVWGQGTLVTVSSASGGGGSGGGGSGGGGSHASDIQMTQSPSSLSASVGDRVTITCRASQSISTWLAWYQQKPGKAPKLLIYAASSLQSGVPSRFSGSGSGTDFTLTISSLQPEDFATYYCQQSYSFPVTFGQGTKVEIK |  |  | 1610 | 973 | 730
AF4386 (other) heavy 1: APTSSSTKKTQLQLEHLLLDLQMILNGINNYKNPKLTDMLTFEFYMPKKATELKHLQCLERELKPLEEVLNLAQSKNFHLRPRDLISNINVIVLELKGSETTFMCEYADETATIVEFLNRWITFCQSIISTLTGGGGSGGGGSGGGGSGGGGSQVQLVQSGAEVKKPGASVKVSCKASGDTFTRYYVHWVRQAPGQGLEWMGIINPSGGYASYAQKFQGRVTMTRDTSTSTVYMELSSLRSEDTAVYYCAAGLFIWGQGTLVTVSSAKTTAPSVYPLAPVCGDTTGSSVTLGCLVKGYFPEPVTLTWNSGSLSSGVHTFPAVLQSDLYTLSSSVTVTSSTWPSQSITCNVAHPASSTKVDKKIEPRGPTIKPCPPCKCPAPNAAGGPSVFIFPPKIKDVLMISLSPIVTCVVVDVSEDDPDVQISWFVNNVEVHTAQTQTHREDYNSTLRVVSALPIQHQDWMSGKEFKCKVNNKDLGAPIERTISKPKGSVRAPQVYVLPPPEEEMTKKQVTLTCMVTDFMPEDIYVEWTNNGKTELNYKNTEPVLDSDGSYFMYSDLRVEKKNWVERNSYSCSVVHEGLHNHHTTESFSRTPGK heavy 2: QVQLVQSGAEVKKPGASVKVSCKASGDTFTRYYVHWVRQAPGQGLEWMGIINPSGGYASYAQKFQGRVTMTRDTSTSTVYMELSSLRSEDTAVYYCAAGLFIWGQGTLVTVSSAKTTAPSVYPLAPVCGDTTGSSVTLGCLVKGYFPEPVTLTWNSGSLSSGVHTFPAVLQSDLYTLSSSVTVTSSTWPSQSITCNVAHPASSTKVDKKIEPRGPTIKPCPPCKCPAPNAAGGPSVFIFPPKIKDVLMISLSPIVTCVVVDVSEDDPDVQISWFVNNVEVHTAQTQTHREDYNSTLRVVSALPIQHQDWMSGKEFKCKVNNKDLGAPIERTISKPKGSVRAPQVYVLPPPEKEMTKKQVSLTCLVKDFMPEDIYVEWTNNGKTELNYKNTEPVLKSDGSYFMYSKLTVEKKNWVERNSYSCSVVHEGLHNHHTTKSFSRTPGGGGSGGGSHHHHHH light: DIQMTQSPSSLSASVGDRVTITCRASQSIGRYLAWYQQKPGKAPKLLIYSASNLETGVPSRFSGSGSGTDFTLTISSLQPEDFATYYCQQYNSFPVTFGPGTKVDIKRADAAPTVSIFPPSSEQLTSGGASVVCFLNNFYPKDINVKWKIDGSERQNGVLNSWTDQDSKDSTYSMSSTLTLTKDEYERHNSYTCEATHKTSTSPIVKSFNRNEC | 1.79 | 0.05 |  |  | 
AF4389 (other) heavy 1: APTSSSTKKTQLQLEHLLLDLQMILNGINNYKNPKLTDMLTFEFYMPKKATELKHLQCLERELKPLEEVLNLAQSKNFHLRPRDLISNINVIVLELKGSETTFMCEYADETATIVEFLNRWITFCQSIISTLTGGGGSGGGGSGGGGSGGGGSQVQLVQSGAEVKKPGASVKVSCKASGHTFTRYYMHWVRQAPGQGLEWMGIINPSGGYATYAQKFQGRVTMTRDTSTSTVYMELSSLRSEDTAVYYCASGLFIWGQGTLVTVSSAKTTAPSVYPLAPVCGDTTGSSVTLGCLVKGYFPEPVTLTWNSGSLSSGVHTFPAVLQSDLYTLSSSVTVTSSTWPSQSITCNVAHPASSTKVDKKIEPRGPTIKPCPPCKCPAPNAAGGPSVFIFPPKIKDVLMISLSPIVTCVVVDVSEDDPDVQISWFVNNVEVHTAQTQTHREDYNSTLRVVSALPIQHQDWMSGKEFKCKVNNKDLGAPIERTISKPKGSVRAPQVYVLPPPEEEMTKKQVTLTCMVTDFMPEDIYVEWTNNGKTELNYKNTEPVLDSDGSYFMYSDLRVEKKNWVERNSYSCSVVHEGLHNHHTTESFSRTPGK heavy 2: QVQLVQSGAEVKKPGASVKVSCKASGHTFTRYYMHWVRQAPGQGLEWMGIINPSGGYATYAQKFQGRVTMTRDTSTSTVYMELSSLRSEDTAVYYCASGLFIWGQGTLVTVSSAKTTAPSVYPLAPVCGDTTGSSVTLGCLVKGYFPEPVTLTWNSGSLSSGVHTFPAVLQSDLYTLSSSVTVTSSTWPSQSITCNVAHPASSTKVDKKIEPRGPTIKPCPPCKCPAPNAAGGPSVFIFPPKIKDVLMISLSPIVTCVVVDVSEDDPDVQISWFVNNVEVHTAQTQTHREDYNSTLRVVSALPIQHQDWMSGKEFKCKVNNKDLGAPIERTISKPKGSVRAPQVYVLPPPEKEMTKKQVSLTCLVKDFMPEDIYVEWTNNGKTELNYKNTEPVLKSDGSYFMYSKLTVEKKNWVERNSYSCSVVHEGLHNHHTTKSFSRTPGGGGSGGGSHHHHHH light: DIQMTQSPSSLSASVGDRVTITCRASQSINSWLAWYQQKPGKAPKLLIYATSTLESGVPSRFSGSGSGTDFTLTISSLQPEDFATYYCQQYYRFPVTFGQGTKVEIKRADAAPTVSIFPPSSEQLTSGGASVVCFLNNFYPKDINVKWKIDGSERQNGVLNSWTDQDSKDSTYSMSSTLTLTKDEYERHNSYTCEATHKTSTSPIVKSFNRNEC | 1.67 | 0.118 |  |  | 
PD1-IL2-R07-A09 (SEQ ID NO: 34) (scFv, V5-tagged in the assay) scFv: QVQLVQSGAEVKKPGASVKVSCKASGYTFTSYYMHWVRQAPGQGLEWMGIINPSDGSTTYAQSFQGRVTMTRDTSTSTVYMELSSLRSEDTAVYYCASGWDVWGQGTLVTVSSASGGGGSGGGGSGGGGSHASDIVMTQSPDSLAVSLGERATINCKSSQSVFSSANNKNYLAWYQQKPGQPPKLLIYWASTRESGVPDRFSGSGSGTDFTLTISSLQAEDVAVYYCQQYFGTPVTFGGGTKVEIK |  |  | 910 | 2040 | 1240
PD1-IL2-R02-A08 (scFv, V domains shown, cf) VH: QVQLVQSGAEVKKPGASVKVSCKVSGYTFTSYDINWVRQAPGQGLEWMGWINPNSGDTGYAQKFQGRVTMTRDTSTSTVYMELSSLRSEDTAVYYCARDTGLGYYYGSGDFDYWGQGTLVTVSS VL: DIQMTQSPSSLSASVGDRVTITCQASQDIHNYLNWYQQKPGKAPKLLIYDVSNLETGVPSRFSGSGSGTDFTLTISSLQPEDFATYYCQQAISFPLTFGGGTKVEIK |  |  | 1610 | 520 | 995
PD1-IL2-R02-A11 (scFv, V domains shown, cf) VH: QVQLVQSGAEVKKPGASVKVSCKASGHTFTRYYMHWVRQAPGQGLEWMGIINPSGGYATYAQKFQGRVTMTRDTSTSTVYMELSSLRSEDTAVYYCASGWDVWGQGTLVTVSS VL: DIQMTQSPSSLSASVGDRVTITCRASQSINSWLAWYQQKPGKAPKLLIYATSTLESGVPSRFSGSGSGTDFTLTISSLQPEDFATYYCQQSYSFPPTFGQGTKVEIK |  |  | 1780 | 1560 | 1620
PD1-IL2-R06-E04 (SEQ ID NO: 33) (scFv, V5-tagged in the assay) scFv: QVQLVQSGAEVKKPGASVKVSCKASGYTFTRYYIHWVRQAPGQGLEWMGWINAYNGDTNYAQKLQGRVTMTRDTSTSTVYMELSSLRSEDTAVYYCARDSYYYDSFDYWGQGTLVTVSSASGGGGSGGGGSGGGGSHASDIQMTQSPSSLSASVGDRVTITCRASQTITDWLAWYQQKPGKAPKLLIYGASNLQGGVPSRFSGSGSGTDFTLTISSLQPEDFATYYCQQYYSSWTFGQGTKVEIK |  |  | 1110 | 247 | 50
PD1-R07-A05 (scFv) scFv: QVQLVQSGAEVKKPGASVKVSCKASGYTFTTYYVHWVRQAPGQGLEWMGIINPSGGSTSYAQNFQGRVTMTRDTSTSTVYMELSSLRSEDTAVYYCASGWDVWGQGTTVTVSSASGGGGSGGGGSGGGGSHASEIVMTQSPATLSVSPGERATLSCRASQSVNTYLAWYQQKPGQAPRLLIYGASTRATGIPARFSGSGSGTEFTLTISSLQSEDFAVYYCQQYGSSPVTFGQGTRLEIK |  |  | 1730 | 19 | 653
